This passage reports IC50, plaque neutralization assay on HEp2 cells with rabbit complement and affinity corresponding to the IC50 of the plaque neutralization assay results from patent publication US20100285022A1.

The assay deals with F protein on live RSV virus (strain not stated) (respiratory syncytial virus). The experiment in a line: cell-based or functional assay.

Take Synagis® (palivizumab) (antibody): the IC50, plaque neutralization assay on HEp2 cells with rabbit complement was determined as 0.3 µg/mL and the affinity corresponding to the IC50 of the plaque neutralization assay came out at 2 nM.
